B1: MXMT1: theobromine synthase polypeptide of Coffea arabica, amino acids 1 to 378 of SEQ ID NO: 1, expressed in E. coli as GST fusion (protein, listed as Caffea arabica)
chain: MELQEVLHMNEGEGDTSYAKNASYNLALAKVKPFLEQCIRELLRANLPNINKCIKVADLGCASGPNTLLTVRDIVQSIDKVGQEEKNELERPTIQIFLNDLFQNDFNSVFKLLPSFYRKLEKENGRKIGSCLISAMPGSFYGRLFPEESMHFLHSCYSVHWLSQVPSGLVIELGIGANKGSIYSSKGCRPPVQKAYLDQFTKDFTTFLRIHSKELFSRGRMLLTCICKVDEFDEPNPLDLLDMAINDLIVEGLLEEEKLDSFNIPFFTPSAEEVKCIVEEEGSCEILYLETFKAHYDAAFSIDDDYPVRSHEQIKAEYVASLIRSVYEPILASHFGEAIMPDLFHRLAKHAAKVLHMGKGCYNNLIISLAKKPEKSDV
B2: MTL3: Coffea arabica polypeptide homologous to MXMT1, encoded by clone #35 cDNA (SEQ ID NO: 8) (protein, listed as Caffea arabica)
chain: MELQEVLRMNGGEGDTSYAKNSAYNQLVLAKVKPVLEQCVRELLRANLPNINKCIKVADLGCASGPNTLLTVRDIVQSIDKVGQEKKNELERPTIQIFLNDLFPNDFNSVFKLLPSFYRKLEKENGRKIGSCLIGAMPGSFYSRLFPEESMHFLHSCYCLQWLSQVPSGLVTELGISTNKGSIYSSKASRLPVQKAYLDQFTKDFTTFLRIHSEELFSHGRMLLTCICKGVELDARNAIDLLEMAINDLVVEGHLEEEKLDSFNLPVYIPSAEEVKCIVEEEGSFEILYLETFKVLYDAGFSIDDEHIKAEYVASSVRAVYEPILASHFGEAIIPDIFHRFAKHAAKVLPLGKGFYNNLIISLAKKPEKSDV
B3: SEQ.ID. NO: 3: Coffea arabica polypeptide homologous to MXMT1, encoded by clone #1 cDNA (SEQ ID NO: 4) (protein, listed as Caffea arabica)
chain: MELQEVLHMNGGEGEASYAKNSSFNQLVLAKVKPVLEQCVRELLRANLPNINKCIKVADLGCASGPNTLLTVWDTVQSIDKVKQEMKNELERPTIQVFLTDLFQNDFNSVFMLLPSFYRKLEKENGRKIGSCLIAAMPGSFHGRLFPEESMHFLHSSYSLQFLSQVPSGLVTELGITANKRSIYSSKASPPPVQKAYLDQFTKDFTTFLRMRSEELLSRGRMLLTCICKGDECDGPNTMDLLEMAINDLVAEGRLGEEKLDSFNVPIYTASVEEVKCMVEEEGSFEILYLQTFKLRYDAGFSIDDDCQVRSHSPVYSDEHARAAHVASLIRSVYEPILASHFGEAIIPDIFHRFATNAAKVIRLGKGFYNNLIISLAKKPEKSDI
B4: MTL2: Coffea arabica polypeptide homologous to MXMT1, encoded by clone #6 cDNA (SEQ ID NO: 6) (protein, listed as Caffea arabica)
chain: MELQEVLHMNGGEGDASYAKNSSFNQLVLAKVKPVLEQCVGELLRANLPNINKCIKVADLGCASGPNTLLTVRDIVQSIDDVRQEMKNELERPTIQVFLTDLFQNDFNSVFMLLPSFYRKLEKENGRKIGSCLIAAMPGSFHGRLFPEESMHFLHSSYSLQFLSQVPSGLVTELGITANKRSIYSSKASPPPVQKAYLDQFTKDFTTFLRIRSEELLSRGRMLLTCICKGDEFDGPNTMDLLEMAINDLVVEGHLEEEKLDSFNVPIYAASVEELKCIVEEEGSFEILYLETFKLRYDAGFSIDDDCQVRSHSPEYSDEHARAAHVASLLRSVYEPILANHFGEAIIPDIFHRFATNAAKVIRLGKGFYNNLIISLAKKPEKSDI

What was measured:
[1] = Measurement of enzymatic (methyl transferase) activity of GST fusion proteins by thin layer chromatography; format: biochemical; details: for activity as theobromine synthase: polypeptides with higher than 80% homology to SEQ.ID. NO: 1; for activity as a methyl transferase: substrates xanthine, 7-methylxanthine, theobromine, paraxanthine, theophylline, 200 μM each
Description: The open reading frame regions of MTL1 (Clone #1), MTL2 (Clone #6), MTL3 (Clone #35) and MXMT1 (Clone #45) were amplified by PCR (polymerase chain reaction). Then, they were optionally cloned into pGEX 4T-2 vector (Pharmacia) and E. coli (JM109) cells were transformed with the resulting plasmids. The obtained E. coli cells were cultured in LB liquid medium containing ampicillin. When OD600 of the culture reached to 0.5, IPTG (isopropyl thio-β-D-galactoside) was added to it and the final concentration of IPTG was made to 1 mM, then the mixture was further cultured at 16° C. for 6 hours. E. coli was desrupted by a sonicator and the protein of the purpose was purified by glutathione Sepharose 4B as a GST (glutathione S-transferase) fusion protein. Concentration of the protein was measured by the Bradford method. Each of the GST fusion protein (500 ng) was separated by SDS-PAGE (sodium dodecyl sulfate polyacrylamide gel electro-phoresis), then it was stained by CBB (coumasie Brilliant Blue) to confirm purification.
Measurement of enzymatic activity was performed using thin layer chromatography (TLC), based on the method of Kato et al. (Plant Physiol., 1996, 98, 629-636). In concrete, the reaction mixture of 100 μl, containing 100 mM Tris-HCl (pH 7.5), 200 μM substrate (xanthine, 7-methylxanthine, theobromine, paraxanthine, theophylline), 4 μM ^14C-labeled S-adenosylmethionine, 200 μM MgCl2, 200 ng GST fusion protein, was incubated at 27° C. for 2 hours. After the reaction, the resulting mixture was extracted with 1 ml of chloroform, the chloroform layer was recovered, then chloroform was evaporated by speed back concentrator. The residue was dissolved in 5 μl of 50% methanol solution, then the solution was developed by TLC (solvent for development was water:acetic acid:n-butanol=2:1:4, v/v/v). After the development, signal of radio activity was detected by image analyzer (Fuji BAS 2000). The result of enzymatic activity, which was measured on the fusion proteins derived from MTL2, MTL3 and MXMT1 using xanthine (X), 7-methylxanthine (7-Mx), theobromine (Tb), paraxanthine (Px) and theophylline (Tp) as the substrate, was shown in FIG. 5.

[2] = Enzymatic activity measurement and identification of the reaction product by HPLC; format: biochemical; details: 200 μM 7-methylxanthine, 50 μM S-adenosylmethionine, 200 ng GST fusion protein, 27° C., 2 hours; UV 254 nm (FIG. 6)
Description: Using high performance liquid chromatography (HPLC), enzymatic activity of the MXMT1 fusion protein was measured and reaction product obtained from the enzymatic reaction was identified. The reaction mixture of 100 μl, containing 100 mM Tris-HCl (pH 7.5), 200 μM of substrate (7-methylxanthine, paraxanthine, theobromine), 50 μM of S-adenosylmethionine, 200 μM of MgCl2, 200 ng of GST fusion protein, was incubated at 27° C. for 2 hours. After incubation, the mixture was extracted with 1 ml of chloroform, the chloroform layer was recovered, then chloroform was evaporated by a speed back concentrator. The residue was dissolved in 50 μl of 12% acetonitrile. Then the solution was fractionated by HPLC (Shodex Rspak DS-613 column) provided with UV detection system. As the solution for development, 12% acetonitrile was used and the signal was detected for absorbance of 254 nm.
The MXMT1 fusion protein was reacted with S-adenosylmethionine and 7-methylxanthine, which is the substrate and the reaction product was analyzed by HPLC. […] Furthermore, S-adenosylmethionine and 7-methylxanthine was reacted with MXMT1 fusion protein and then theobromine was added to the reaction mixture. The peak position of the reaction product detected in FIG. 6A coincided with the position of theobromine, which was analyzed as the standard compound. […]

| Molecule | activity to synthesize theobromine, using 7-methylxanthine as the substrate ([1]; 200 μM 7-methylxanthine, 4 μM 14C-S-adenosylmethionine, 200 ng GST fusion protein, 27° C., 2 hours, TLC (FIG. 5)) | relative activity to synthesize caffeine, using paraxanthine as the substrate ([1]; 200 μM paraxanthine, relative to the activity with 7-methylxanthine, TLC (FIG. 5)) | reaction product identified by HPLC [2] | activity as theobromine synthase [1] | activity as a methyl transferase ([1]; TLC (FIG. 5)) |
| --- | --- | --- | --- | --- | --- |
| B1 | potent activity to synthesize theobromine | 15% | theobromine was formed | – | – |
| B2 | – | – | – | did not exhibit activity as theobromine synthase | did not exhibit activity as a methyl transferase |
| B3 | – | – | – | did not exhibit activity as theobromine synthase | – |
| B4 | – | – | – | did not exhibit activity as theobromine synthase | did not exhibit activity as a methyl transferase |
